Results on 22 sequences are retold here after the NTF2 design screens of Basanta et al. (2020).

A short description of the data set: protease stability score; higher = more stable; yeast display proteolysis, trypsin and chymotrypsin.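 Also: relative to predicted unfolded state with 0 unfolded-like and 1 meaning tenfold more protease.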
“TEYEEHMKKMNEEILHSWITGDEDTLQHLADPNVRVEINGQETHGREQLYNTFHKAGFKHWEFDSIRFQGDKSDIRGQFEVDGQLREMEVEMRIVNGRLKIVRLDIR” had a protease stability score of 0.977.

The sequence “TEYEHLMEYIVRRFLEVLLTGDERELDRLADPHVIHHMKQGDKSWSLHGMELLSEVSRHWRDEIRIKRVEIHDLKNIGNWSDMYSTVHLRYNGREEVVEVRLHIDVYNGRVREVEIRIH” yielded a protease stability score of 1.12.

On to “THDEEVIEIMMDHLREQIHTGDFTSLLEQLDPHARSDVDGREFHGREIVAHVWFHLRVKHVRIDHVDIVNGKIRVDSWIQGRINGRETEYEVILRAHKVDGRWRVHSYEIR”, for which the protease stability score was found to be 1.72.

In the case of “THEDEIFKEFERILREVDETGDEHDIKQYLDPNTKFHINGRDLIGMKVVTEFWRELLQKYKNLTINRRIRHVEVYNGRVHIHGHLSLHYGDKDIRVDVHIQAIKIDGRWHLQQEHYL”, the protease stability score was determined as 1.15.

The sequence “THEEEIFRRIAELIIDALTTGDEQLLRDLADPHVRQILIIDGREITVHGREEVFELLKEHIDELRIHRVNIEHMDVVGNKVTLDGRMDGYYGDKRTRLEFRIHIDIVNGKLKELTITMR” showed a protease stability score of 2.16.

Sequence “THEEELSREATRFMLHVLMTGDPTLTEEQADPRTRVVVGDKELHGMEHLSKWYEDHWRQYPNVRIEFKRTEVQGDKMFLDGRLKVNGRETHVFILAFKINGQWVLEEIRFK” returned a protease stability score of 1.59.

For “THEEEQARRALKHLIELEKTGDEEKWSHLADPNVRMEINGRQVHGRETIRKIYHEWRRKLGVNHIHHIEIKHIDIQGEKLRVEMHVNSQYGDKTLLIETEIELDKIDGKWIITMHYER”, the protease stability score was found to be 1.15.

In turn, “THEEHFDERVARHLHENFLTGNEDIFEHLADPHTRIIIVQGDKMIHFHGWEWFAMKMLEDLHRIKGIRITLRHINIQGDKWILEMKVDIGDKELETEIIIHVINGKIESVRIIIR” gave a protease stability score of 1.35.

In turn, “THEERLYREAMELEREVWETGDEHLIRDMVDPNVRFEINGVNTHGREEMARFVHEFGVDHIHIDHLQRINGRLEVRGKFQVGDKWVRTRFISTKINGRWFVESVHVR” yielded a protease stability score of 0.626.

In turn, “THEQKLSHEITHIFWEILKTGDEHEMRRLADPNVQLEINGVERHGMHVLEHWLVHLGIDHLHVTDHRVQGEYSYWDTTLRVGDKERTIHLEVLAFNGRVKAFRLHVR” returned a protease stability score of 1.22.

“THEWREAREMIEVFLERIETGDEESLERLLDPHVRVHINGKDFHGRDEAIRKLIEMRHHSIHLKHINVQGDKVHNFGEWIVDFDGKKHTHKMILYISKVNGRWLIDSIHVE” showed a protease stability score of 0.98.

The sequence “THLHDQVHKAVEDVERDLMTGNEERLYKLLDPNVRIEYNGQDLHGREIAIHFLIRISNHWRFEDLHIESMNVQGNKATIHSRYVRHIGDKREETHVHLYMVKINGQWFIHSMSFS” returned a protease stability score of 2.25.

The sequence “TKDDEDRKHFEKLLRHSLETGNWHDMQRNADPNVRLNVNGVEIHGMDTAYELWVEELNRADHIEIHMEHSTRVGDKLHLDVNVIMKQGDKHIERRVRLVVLKINGRWFIHSVHVH” returned a protease stability score of 1.1.

In turn, “TKEEDLMELALRIIERVNETGDEQELHDRLDPHTQIEIGDKNEHGWEHIVHVMRHIRIEQIRFRDRRVQGDKVHVFVESEIRVGEKQLHVKVDIYVWKFDGRWIMTRMRVE” yielded a protease stability score of 1.33.

On to “TKEEEESRHWSELMFHLEETGDEEILKDLADPHVKIHVNGVHLHGMEKLEEWRRRLGITKFDSHLHDFRVQGEKMHNIVHLHINGQKIDAHIIIIIVDGKITRIIIRIT”, for which the protease stability score was determined as 0.75.

“TKEEELAHRALHEWINDINTGNEEEFKELVDPNARMLVDGRHHHGREHVINVFIHLIRKVKNLTVDLDEIEIQGDKVTVIGILRVDGREIHITIHSRKINGRWHFEDIVWE” gave a protease stability score of 1.6.

“TQEKREADHSNKLEEHSHQTGDERLLTELADPHVKIFVDGQELHGREEFLRWVEEAGVKHFHVDHVRYQGDKLFVHGHFNINGREREVRLIYRKVNGKWYLHQMDIN” showed a protease stability score of 1.23.

“TSHEHELRRVAEEIIHAYLTGDWWRWERLFDPHVRVETQVGDKRIERHGREDLIRFLNEMRVHRIEIKTRELYDGRVHIHSRMDYEVDGQRDDVDLHLHFHIVDGKVEEVVITIK” gave a protease stability score of 1.47.

Sequence “TTEHAATLFLTSMITGDWEWISRLFDPHVRLVFNGVTNVGRELAIHKLVETVLKLGVKHTHIDEMRLYGDKVEVHVTLRVGDKTTNIDIEVDWVDGQVKEVHIDTRTEDTSKILKHVYK” had a protease stability score of 0.109.

In turn, “VEDLQLAEHVTRLLLHLVHTGDFDVMKELLDPNVRIHVDGQDYHGRDVWKHILDRFDYISVHHSEVKENDVQGNKVNIRVHTDVIFEYGDKRLRQRYDVVVIAQKINGRWIIELFSVR” yielded a protease stability score of 1.22.

“VEDLREYIRIAEELVKSWITGDWDRLRKLVDPNVRLDVDGVENIGRDHVHRALEEHEKHIRLKDHRIEHIDAVDGKSTMHTRSHFHINGVEHEVNVHMEFVIVNGRVTEMRISIR” returned a protease stability score of 1.02.

“VETEERLHDIVHSIIRLDETGDEQDFDRLVDPNAKFDIDGKELHGRDNFRHMWARYRRELGVDHIQFKHVFIQGDKIHQERRVTIGDKTYNMHVDLVVIDGRIQHVRYRIR” registered a protease stability score of 1.56.
